What all share (conditions): both partners purified
Assay [1] has as its target T1, Human carboxypeptidase B1 (hCPB1) (human, UniProt P15086 111-417).
T1 construct: also called human CPB1
T1 sequence (looked up): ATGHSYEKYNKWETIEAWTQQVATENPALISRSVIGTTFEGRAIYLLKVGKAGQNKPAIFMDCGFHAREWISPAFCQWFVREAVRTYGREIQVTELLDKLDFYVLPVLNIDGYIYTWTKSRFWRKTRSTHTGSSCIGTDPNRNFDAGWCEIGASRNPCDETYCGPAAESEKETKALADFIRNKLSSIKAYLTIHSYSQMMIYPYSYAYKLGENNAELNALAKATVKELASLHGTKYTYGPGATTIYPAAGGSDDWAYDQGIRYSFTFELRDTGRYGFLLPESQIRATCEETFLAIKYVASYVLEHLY
Briefly: enzyme inhibition kinetics (tight-binding inhibitor, Morrison equation); CPBs: inhibition of hydrolysis of N-(4-methoxyphenylazoformyl)-Arg-OH (0.1 mM) at 355 nm; 20 mM Tris-HCl pH 7.5, 1% v/v DMSO, 0.05% w/v Brij-35, 0.1 M NaCl; 37 °C; enzyme constant (6.0 nM hCPB1 and pCPB1), increasing amounts of inhibitor.

In assay [2] the target is T2, Porcine carboxypeptidase B (pCPB1) (porcine, UniProt P09955 111-416).
T2 construct: Porcine carboxypeptidase B (CPB1), purchased active enzyme; also called porcine CPB1; source: bought: Sigma
T2 sequence (looked up): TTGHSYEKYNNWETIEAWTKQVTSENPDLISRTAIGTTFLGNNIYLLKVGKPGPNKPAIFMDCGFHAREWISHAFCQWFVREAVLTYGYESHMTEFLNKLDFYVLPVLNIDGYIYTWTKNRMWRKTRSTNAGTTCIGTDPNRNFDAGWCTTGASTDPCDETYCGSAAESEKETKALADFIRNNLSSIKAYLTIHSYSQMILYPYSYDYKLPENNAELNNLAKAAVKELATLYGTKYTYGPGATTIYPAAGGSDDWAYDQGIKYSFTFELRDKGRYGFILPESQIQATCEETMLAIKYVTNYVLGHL
Described as above.

For assay [3], the target named is T3, Human carboxypeptidase A1 (hCPA1) (human, UniProt P15085 111-419).
T3 construct: also called human CPA1
T3 sequence (looked up): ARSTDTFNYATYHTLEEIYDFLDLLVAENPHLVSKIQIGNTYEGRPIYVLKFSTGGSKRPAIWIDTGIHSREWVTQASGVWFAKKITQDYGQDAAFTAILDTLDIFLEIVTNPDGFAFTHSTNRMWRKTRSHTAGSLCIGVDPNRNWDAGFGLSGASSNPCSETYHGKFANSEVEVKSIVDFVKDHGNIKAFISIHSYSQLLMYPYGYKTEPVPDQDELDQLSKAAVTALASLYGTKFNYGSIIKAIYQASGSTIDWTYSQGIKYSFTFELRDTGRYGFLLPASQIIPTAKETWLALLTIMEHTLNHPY
As to the kind of experiment: enzyme inhibition kinetics (tight-binding inhibitor, Morrison equation); CPAs: inhibition of hydrolysis of N-(4-methoxyphenylazoformyl)-Phe-OH (0.1 mM) at 355 nm; 20 mM Tris-HCl pH 7.5, 1% v/v DMSO, 0.05% w/v Brij-35, 0.5 M NaCl; 37 °C; enzyme constant (7.5 nM hCPA1, 6.0 nM bCPA1), increasing amounts of inhibitor.

The target in assay [4] is T4, Bovine carboxypeptidase A (bCPA1) (bovine, UniProt P00730 111-419).
T4 construct: Bovine carboxypeptidase A (CPA1), purchased active enzyme; also called bovine CPA1; source: bought: Sigma
T4 sequence (looked up): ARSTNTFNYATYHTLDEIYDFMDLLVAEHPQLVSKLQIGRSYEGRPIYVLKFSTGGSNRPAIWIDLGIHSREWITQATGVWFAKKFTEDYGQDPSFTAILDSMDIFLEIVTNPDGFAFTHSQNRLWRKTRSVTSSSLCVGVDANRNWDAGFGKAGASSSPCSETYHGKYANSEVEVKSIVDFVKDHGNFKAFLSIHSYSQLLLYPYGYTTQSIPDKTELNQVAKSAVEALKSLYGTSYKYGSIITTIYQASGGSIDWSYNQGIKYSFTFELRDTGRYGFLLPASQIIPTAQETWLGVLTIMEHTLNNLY
Described as above.

Bridges are numbered along the chain shown (N, C = ends). Where no end group is shown, it is not given here.

B1: Nerita versicolor carboxypeptidase inhibitor (NvCI), native (natural protein, UniProt P86912 1-53, looked up)
chain: FHVPDDRPCINPGRCPLVPDATCTFVCKAADNDFGYECQHVWTFEGQRVGCYA
modifications: disulfide 15-51, 9-23, 27-38
notes: comprises 53 residues, C-terminal tail Cys51-Tyr52-Ala53; also called native NvCI; 3S-S native form; source: Pichia pastoris, secreted into the extracellular medium, purified (ion exchange, size exclusion); repurified by RP-HPLC
For B1, the Ki in assay [1] stood at 0.62 nM; in assay [2], 0.53 nM; in assay [3], 0.00118 nM; in assay [4] it was 0.00491 nM.

B2: des(15–51) NvCI folding/unfolding intermediate (natural protein, Nerita versicolor, UniProt P86912 1-53, looked up)
chain: FHVPDDRPCINPGRCPLVPDATCTFVCKAADNDFGYECQHVWTFEGQRVGCYA
modifications: disulfide 9-23, 27-38; cysteine pairing not given here
notes: differs only in the missing Cys15-Cys51 disulfide; also called intermediate IIb; fraction IIb
As to B2, the Ki is 7.85 nM in assay [1], 4.9 nM in assay [2], 1 nM in assay [3] and 2.01 nM in assay [4].
